Measurements taken from patent US20170362317A1 (FOUNTAIN BIOPHARMA, published 2017).

Tests used:
[1] = molecular target: T1, recombinant human interleukin-6 (IL6) (human, UniProt P05231 30-212); assay: ELISA, plate coated with recombinant human IL6 at 2 µg/ml, FB704 in four-fold serial dilutions from 2 µg/ml, HRP-labeled goat anti-human IgG, A450
T1 construct: Bought recombinant protein; also called rhIL6; hIL6
Description: (§1) Plates were coated with recombinant human IL3, IL4, IL5, IL6, IL11, IL17A, CNTF, OSM, IGF-1 (R&D Systems), IL2, FGF (Prospec), VEGF, TNF-α, EGF (Peprotech) at 2 μg/ml in 0.1M NaHCO₃ buffer at 4° C. overnight. After being washed by PBS, the wells were blocked with 1% (w/v) BSA in PBS at RT for 1 h. Purified anti-IL6 antibodies in four-fold serial dilutions at a starting concentration of 2 μg/ml were placed into the wells and incubated at RT for 1 h. The plate was washed in PBS containing 0.1% (w/v) Tween 20 and then probed with HRP-labeled goat anti-human IgG (KPL) diluted 1:10,000 in 1% BSA-PBS for 40 min at RT. The plate was again washed and a TMB substrate solution was added to develop color. Stop solution (1M H₂SO₄) was then added and the absorption at 450 nm quantitated using VERSA max (Molecular Devices).
(§2) An ELISA assay as described herein was performed to confirm the binding specificity of high-affinity anti-IL6 antibodies described herein. Briefly, plates were coated with different cytokines as indicated in FIG. 3A (IL6 family cytokines) and FIG. 3B (non-IL6 family cytokines) and the binding activities of the FB704 antibody clone (i.e. Ag1-4-6) to those cytokines were examined.

recombinant human VEGF = recombinant human VEGF (human, UniProt P15692-4 27-191, limits assumed); assay: ELISA, plate coated with the cytokine at 2 µg/ml, FB704 in four-fold serial dilutions, HRP-labeled goat anti-human IgG, A450 [Cont'd) B]
Sequence of recombinant human VEGF (P15692 other isoform, or with tags, fused parts or gaps limits assumed): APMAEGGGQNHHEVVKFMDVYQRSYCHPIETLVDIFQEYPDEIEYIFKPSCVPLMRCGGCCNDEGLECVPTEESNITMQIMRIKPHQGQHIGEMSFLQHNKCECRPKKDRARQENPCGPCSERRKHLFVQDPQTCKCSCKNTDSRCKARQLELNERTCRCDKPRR
Description: as §1, §2

recombinant human TNF-α = recombinant human TNF-α (human, UniProt P01375 77-233); assay: as above
Sequence of recombinant human TNF-α (P01375 77-233 limits assumed): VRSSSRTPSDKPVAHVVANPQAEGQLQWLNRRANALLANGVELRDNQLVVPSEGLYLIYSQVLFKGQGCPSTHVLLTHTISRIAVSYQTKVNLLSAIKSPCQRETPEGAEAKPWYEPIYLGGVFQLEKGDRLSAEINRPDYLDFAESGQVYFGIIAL
Description: as §1, §2

recombinant human IGF-1 = recombinant human IGF-1 (human, UniProt P05019 49-118); assay: as above
Sequence of recombinant human IGF-1 (P05019 49-118 limits assumed): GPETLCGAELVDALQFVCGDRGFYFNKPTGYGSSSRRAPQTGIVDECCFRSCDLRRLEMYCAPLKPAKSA
Description: as §1, §2

recombinant human EGF = recombinant human EGF (human, UniProt P01133 971-1023); assay: as above
Sequence of recombinant human EGF (P01133 971-1023 limits assumed): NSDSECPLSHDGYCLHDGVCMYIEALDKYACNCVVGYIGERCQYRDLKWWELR
Description: as §1, §2

[2] = molecular target: T1, recombinant human interleukin-6 (IL6); assay: cell-based or functional assay
[3] = molecular target: T1, recombinant human interleukin-6 (IL6); assay: ELISA, plate coated with recombinant human IL6 at 2 µg/ml, FB704 in four-fold serial dilutions from 2 µg/ml, HRP-labeled goat anti-human IgG, A450 [Cont'd) B]
Description: as §1, §2

[4] = molecular target: T1, recombinant human interleukin-6 (IL6); assay: cell-based or functional assay; remark: listed apart in the source
[5] = molecular target: T1, recombinant human interleukin-6 (IL6); assay: SPR (BIAcore T200), IgG captured by anti-human IgG, IL6 injected at 0.4-25.6 nM
Description: IgG binding affinity was measured by using human antibody capture kit (GE healthcare) in BIAcore T200 system (GE healthcare). The mouse anti-human IgG was immobilized on a CMS sensor chip via amine coupling. Approximately 700 RU of purified anti-IL6 IgG in HBS-EP+ buffer were captured onto the immobilized surface. The recombinant human IL6 (R&D Systems) at concentrations ranging from 25.6 nM to 0.4 nM in HBS-EP+ buffer was injected for 2 minutes using a flow rate of 30 μl/min. Dissociation of bound antigen in HBS⁻EP⁺ buffer flow was followed for 7 minutes. The surfaces IgG were regenerated after each cycle using regeneration solution (3M MgCl₂). The dissociation constant (KD) was calculated as kd/ka.

recombinant human IL17A = molecular target: T2, recombinant human IL17A (human, UniProt Q16552 20-155, limits assumed); assay: ELISA, plate coated with the cytokine at 2 µg/ml, FB704 in four-fold serial dilutions, HRP-labeled goat anti-human IgG, A450
T2 sequence (looked up): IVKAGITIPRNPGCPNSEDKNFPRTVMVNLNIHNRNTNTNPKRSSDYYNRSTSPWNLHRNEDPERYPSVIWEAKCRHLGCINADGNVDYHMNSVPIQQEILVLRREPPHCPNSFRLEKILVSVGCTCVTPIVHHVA
Description: as §1, §2

recombinant human OSM = molecular target: T3, recombinant human OSM (human, UniProt P13725 26-221, limits assumed); assay: as above
T3 sequence (looked up): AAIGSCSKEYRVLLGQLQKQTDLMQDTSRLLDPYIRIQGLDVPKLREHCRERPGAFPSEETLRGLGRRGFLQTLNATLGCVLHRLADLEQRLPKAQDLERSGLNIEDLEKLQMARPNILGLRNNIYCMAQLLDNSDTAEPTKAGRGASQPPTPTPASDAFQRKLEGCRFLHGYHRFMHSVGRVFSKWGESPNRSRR
Description: as §1, §2

recombinant human IL11 = molecular target: T4, recombinant human IL11 (human, UniProt P20809 22-199); assay: as above
T4 sequence (looked up): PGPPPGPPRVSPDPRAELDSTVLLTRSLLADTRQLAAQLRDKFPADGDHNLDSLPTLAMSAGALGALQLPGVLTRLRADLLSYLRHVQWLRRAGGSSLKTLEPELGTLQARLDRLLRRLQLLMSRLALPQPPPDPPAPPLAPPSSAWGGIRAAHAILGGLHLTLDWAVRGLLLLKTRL
Description: as §1, §2

recombinant human IL2 = recombinant human IL2 (human, UniProt P60568 21-153); assay: as above
Sequence of recombinant human IL2 (P60568 21-153 limits assumed): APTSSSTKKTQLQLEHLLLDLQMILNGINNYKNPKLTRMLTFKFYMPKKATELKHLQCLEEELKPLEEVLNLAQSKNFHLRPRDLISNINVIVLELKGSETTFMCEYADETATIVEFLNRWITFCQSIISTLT
Description: as §1, §2

recombinant human IL3 = molecular target: T5, recombinant human IL3 (human, UniProt P08700 20-152); assay: as above
T5 sequence (looked up): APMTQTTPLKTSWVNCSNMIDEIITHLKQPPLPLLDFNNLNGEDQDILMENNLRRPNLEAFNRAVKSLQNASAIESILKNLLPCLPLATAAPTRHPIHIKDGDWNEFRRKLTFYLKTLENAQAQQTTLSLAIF
Description: as §1, §2

recombinant human IL4 = molecular target: T6, recombinant human IL4 (human, UniProt P05112 25-153); assay: as above
T6 sequence (looked up): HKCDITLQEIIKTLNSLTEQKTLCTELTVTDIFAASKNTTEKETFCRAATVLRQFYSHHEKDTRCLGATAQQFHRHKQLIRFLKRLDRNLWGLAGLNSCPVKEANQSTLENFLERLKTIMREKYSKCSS
Description: as §1, §2

recombinant human IL5 = molecular target: T7, recombinant human IL5 (human, UniProt P05113 20-134); assay: as above
T7 sequence (looked up): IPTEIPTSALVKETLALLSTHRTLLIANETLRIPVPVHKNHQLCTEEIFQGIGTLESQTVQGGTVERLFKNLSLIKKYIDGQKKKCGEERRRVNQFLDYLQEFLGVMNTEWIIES
Description: as §1, §2

recombinant human CNTF = molecular target: T8, recombinant human CNTF (human, UniProt P26441 2-200); assay: as above
T8 sequence (looked up): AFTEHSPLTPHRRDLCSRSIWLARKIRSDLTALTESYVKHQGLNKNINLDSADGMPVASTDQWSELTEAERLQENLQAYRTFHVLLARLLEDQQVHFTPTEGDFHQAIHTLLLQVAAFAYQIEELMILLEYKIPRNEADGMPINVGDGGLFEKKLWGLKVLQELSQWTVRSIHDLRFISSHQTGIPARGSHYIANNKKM
Description: as §1, §2

B1: Ag1-4-6 (fully human anti-IL6 IgG1 antibody) (antibody, V domains shown)
VH: EVQLVESGPALVKPTQTLTLTCTFSGFSLSTGGMSVSWIRQPPGKALEWLARIDWDDDKFYTPSLKTRLTISRDTSKNQVVLIMTNMDPVDTATYYCARMHIDDSNGYYSDAFHIWGQGTMVTVSS
VL: EIVLTQSPATLSVSPGERVTLSCRDSQSVSSTSLAWYQQKSGQAPRLLIYDTSNRATGIPARFSGGGSGTDFTLTISSLEPEDFAVYYCSFVSRPYPRFTFGQGTKVEIK
notes: also called FB704
B1 was tested. Which “EC50 (read off the curve)” value [1] did it give?
The value was ~0.01 µg/mL.

Does B1 bind (recombinant human VEGF)?
Result: no binding (tested: 2 µg/ml)

Does B1 bind (recombinant human TNF-α)?
Result: no binding (tested: 2 µg/ml)

Does B1 bind (recombinant human IGF-1)?
Result: no binding (tested: 2 µg/ml)

Does B1 bind (recombinant human EGF)?
Result: no binding (tested: 2 µg/ml)

What about the “inhibition percentage of control of STAT3 phosphorylation in U266 cells, antibody at 0.05 µg/ml” value (from here on “inhibition percentage of control … at 0.05 µg/ml”) [2] of the same binder?
The value was 0%.

What about the “inhibition percentage of control of STAT3 phosphorylation in U266 cells, antibody at 0.5 µg/ml” value (shortened to “inhibition percentage of control … at 0.5 µg/ml”) [2] of the same binder?
Its value is 60%.

And the “EC50 (read off the curve)” value [3]?
The value was ~0.01 µg/mL.

What about the “IC50 of inhibition of IL6-dependent B9 cell proliferation (WST-1, 72 h)” value (shortened to “IC50 of inhibition … (WST-1, 72 h)”) [4] of the same binder?
Its value is 0.0468 µg/mL.

And the Kd [5]?
The Kd was 0.75 nM.

What about the koff [5] of the same binder?
The koff was 0.00121 s⁻¹.

What about the kon [5] of the same binder?
The kon was 1.61e+06 M⁻¹ s⁻¹.

Does B1 bind (recombinant human IL17A)?
Result: no binding (tested: 2 µg/ml)

Does B1 bind (recombinant human OSM)?
Result: no binding (tested: 2 µg/ml)

Does B1 bind (recombinant human IL11)?
Result: no binding (tested: 2 µg/ml)

Does B1 bind (recombinant human IL2)?
Result: no binding (tested: 2 µg/ml)

Does B1 bind (recombinant human IL3)?
Result: no binding (tested: 2 µg/ml)

Does B1 bind (recombinant human IL4)?
Result: no binding (tested: 2 µg/ml)

Does B1 bind (recombinant human IL5)?
Result: no binding (tested: 2 µg/ml)

Does B1 bind (recombinant human CNTF)?
Result: no binding (tested: 2 µg/ml)

B2: HAg1T-3-10 (fully human anti-IL6 IgG1 antibody) (antibody, V domains shown)
VH: EVQLVESGPALVKPTQTLTLTCTFSGFSLSTGGMSVSWIRQPPGKALEWLARIDWDDDKFYTPSLKTRLTISRDTSKNQVVLIMTNMDPVDTATYYCARMHIDDSNGYFSDAFHIWGQGTMVTVSS
VL: EIVLTQSPATLSVSPGERVTLSCRDSQSVSSTSLAWYQQKSGQAPRLLIYDTSNRATGIPARFSGGGSGTDFTLTISSLEPEDFAVYYCSFVSRPYPRFTFGQGTKVEIK
notes: also called HAgT1-3-10
For B2, which “inhibition percentage of control … at 0.05 µg/ml” value [2] is on record?
Its value is 49%.

And the “inhibition percentage of control … at 0.5 µg/ml” value [2]?
Its value is 93%.

And the “IC50 of inhibition … (WST-1, 72 h)” value [4]?
Its value is 0.00456 µg/mL.

What about the Kd [5] of the same binder?
The Kd was 0.27 nM.

What about the koff [5] of the same binder?
The koff was 0.0006 s⁻¹.

And the kon [5]?
Its kon is 2.24e+06 M⁻¹ s⁻¹.

B3: 1-4-62 (fully human anti-IL6 IgG1 antibody) (antibody, V domains shown)
VH: EVQLVESGPALVKPTQTLTLTCTFSGFSLSTGGMSVSWIRQPPGKALEWLARIDWDDDKFYTPSLKTRLTISRDTSKNQVVLIMTNMDPVDTATYYCARMHIDDSNGYYSDAFHIWGQGTMVTVSS
VL: EIVLTQSPATLSVSPGERVTLSCRDSQSVSSTSLAWYQQKSGQAPRLLIYDTSNRATGIPARFSGGGSGTDFTLTISSLEPEDFAVYYCLVRNNWPPRFTFGQGTKVEIK
notes: also called parent clone
How did the “inhibition percentage of control … at 0.05 µg/ml” value [2] turn out when B3 was run?
Its value is 0%.

What about the “inhibition percentage of control … at 0.5 µg/ml” value [2] of the same binder?
Its value is 8%.

And the “IC50 of inhibition … (WST-1, 72 h)” value [4]?
Its value is 0.618 µg/mL.

And the Kd [5]?
The Kd was 3.85 nM.

What about the koff [5] of the same binder?
Its koff is 0.00166 s⁻¹.

What about the kon [5] of the same binder?
The kon was 438000 M⁻¹ s⁻¹.
